Test results reported in the Human Domainome abundance scans (Beltran et al. 2025).
± gives the uncertainty stated by the source.

B1: Neutrophil cytosol factor 2, residues 456 to 514; numbered along this chain, P19878 (parent)
chain: LKKGSQVEALFSYEATQPEDLEFQEGDIILVLSKVNEEWLEGECKGKVGIFPKVFVEDC

Variants of: B1
Experiment: abundance fitness (aPCA) (normalised: wild type 0, dead -1); higher = more abundant; growth selection in yeast, the domain comes from the species named
Details: Homo sapiens

Variant | abundance fitness
LKKGSQVEALFSYEATQPEDNEFQEGDIILVLSKVNEEWLEGECKGKVGIFPKVFVEDC [L21N] | -0.538 ± 0.17
LKKGSQVEALFSYEATQPEDLEFQEGDIILVYSKVNEEWLEGECKGKVGIFPKVFVEDC [L32Y] | -0.249 ± 0.13
LKKGVQVEALFSYEATQPEDLEFQEGDIILVLSKVNEEWLEGECKGKVGIFPKVFVEDC [S5V] | -0.056 ± 0.13
LKKGSQVEALFSYEATQPEDLEFQEGDIILVLSKVNEEWLEGECKMKVGIFPKVFVEDC [G46M] | -0.599 ± 0.34
LKKGSQVEALFSYEATQPEDLEFQNGDIILVLSKVNEEWLEGECKGKVGIFPKVFVEDC [E25N] | -0.015 ± 0.18
LKKGSQVEALFSYEATQPIDLEFQEGDIILVLSKVNEEWLEGECKGKVGIFPKVFVEDC [E19I] | -0.305 ± 0.11
LKKGSQVEALFSYEATQPEDLEFQEGDIILVLSKVNEEWLEGECHGKVGIFPKVFVEDC [K45H] | 0.232 ± 0.12
LKKGSHVEALFSYEATQPEDLEFQEGDIILVLSKVNEEWLEGECKGKVGIFPKVFVEDC [Q6H] | 0.427 ± 0.25
LKKGSQVEALFSYEATQPEDLEFQEGDIILVLEKVNEEWLEGECKGKVGIFPKVFVEDC [S33E] | -0.786 ± 0.28
LKKGSQVEALFPYEATQPEDLEFQEGDIILVLSKVNEEWLEGECKGKVGIFPKVFVEDC [S12P] | -0.257 ± 0.2
LKKGSQVEALFSYEATQPEDLEFQEGDIILVLSKVNEEWLEGECKGTVGIFPKVFVEDC [K47T] | -0.284 ± 0.13
LKKGSQVEALFWYEATQPEDLEFQEGDIILVLSKVNEEWLEGECKGKVGIFPKVFVEDC [S12W] | -0.557 ± 0.28
LKKGSQREALFSYEATQPEDLEFQEGDIILVLSKVNEEWLEGECKGKVGIFPKVFVEDC [V7R] | -0.343 ± 0.2
LKKGSQVEALFSYEATQPEDLEFQEGDIILVLSKVNEEWLEGECKGKVGIFDKVFVEDC [P52D] | -0.479 ± 0.21
LKKGSQVEALFSYEATQPEDLEFQEGDIILVLSKVNEEWLEGECKGKVGIFPSVFVEDC [K53S] | -0.39 ± 0.12
LKKGSQVEALFSYEATQPEDLEFQEGDIILVLSKVNEEWLEGECKGKVGIFPKVFVPDC [E57P] | -0.28 ± 0.21
LKKGSQVEALFSYEATQPEDLEFQEGDIILVLSKVNGEWLEGECKGKVGIFPKVFVEDC [E37G] | -0.277 ± 0.12
LKKGSQVEALFSYEATQPEDLEFQEGDIILVLSKVNEEWLEYECKGKVGIFPKVFVEDC [G42Y] | -0.466 ± 0.16
LKKGSQVEALFSYEATQPEDLEFQEGDIILVLSKVNEEWLIGECKGKVGIFPKVFVEDC [E41I] | 0.175 ± 0.087
LKKGSQVEALFSYEATQPEDLEFQEGDIILVLSKVNEEWLEGECKGKVGIFPKVFVTDC [E57T] | 0.487 ± 0.087
LKKLSQVEALFSYEATQPEDLEFQEGDIILVLSKVNEEWLEGECKGKVGIFPKVFVEDC [G4L] | -0.83 ± 0.21
LKKGSQVEALFSYEATQPEDLEFQEGDIILVLSKVNEEWLEGECAGKVGIFPKVFVEDC [K45A] | -0.765 ± 0.19
LKKGSQVEALFSYEATQPEDLEFQEGDIILVLSKVNEEWLEGECKGKVDIFPKVFVEDC [G49D] | -0.478 ± 0.13

Variant | abundance fitness
LKKGSQVEALFSYEATQPEDLEFQEGDIILVLSKVNEEWLEGECKGKVGIFPKHFVEDC [V54H] | 0.425 ± 0.1
LKKGSQVEALFSYEATQPEDLEFQEGDIIKVLSKVNEEWLEGECKGKVGIFPKVFVEDC [L30K] | 0.491 ± 0.17
LKKCSQVEALFSYEATQPEDLEFQEGDIILVLSKVNEEWLEGECKGKVGIFPKVFVEDC [G4C] | -0.371 ± 0.23
LKKGSQVEALFSYEATQPEDLEFMEGDIILVLSKVNEEWLEGECKGKVGIFPKVFVEDC [Q24M] | -0.311 ± 0.27
LKKGSQVEALFSYEATQPNDLEFQEGDIILVLSKVNEEWLEGECKGKVGIFPKVFVEDC [E19N] | 0.156 ± 0.1
LKKGSQVEALFSYEATQPEDLEFQEGDIILVLSKVNEEWLEGECKGKVGIFPKVFTEDC [V56T] | -0.457 ± 0.14
LKKGSQVEALFSYEATLPEDLEFQEGDIILVLSKVNEEWLEGECKGKVGIFPKVFVEDC [Q17L] | -0.266 ± 0.11
LKKGSQVEALFSYEAFQPEDLEFQEGDIILVLSKVNEEWLEGECKGKVGIFPKVFVEDC [T16F] | -0.609 ± 0.2
LKKGSQVEALFSYEATQPEDLEFQEGDIILVLSKVNEEWLEGECKGCVGIFPKVFVEDC [K47C] | -0.658 ± 0.14
LKKGSQVEALFSYEATQPEDLEFQEGDIILVLSKVNEEWLEVECKGKVGIFPKVFVEDC [G42V] | -0.748 ± 0.16
LKKGSQVEALFSYEATQPEDLEFQEGDIILVLSKVNEEWLKGECKGKVGIFPKVFVEDC [E41K] | 0.367 ± 0.1
LKKKSQVEALFSYEATQPEDLEFQEGDIILVLSKVNEEWLEGECKGKVGIFPKVFVEDC [G4K] | -0.193 ± 0.45
LKKGSQVEALFSYEATQPEDLEFQEGDIILVLSKVNEEWLEGECKGKVGIEPKVFVEDC [F51E] | 0.113 ± 0.19
LKKGSQVEALFSYEATQPEDLEFQEGDIILVLSKVNEEWLWGECKGKVGIFPKVFVEDC [E41W] | -0.267 ± 0.23
LKKGSQVEALFSYEATQPEDLEFQEGDIILVLSKVNEEWVEGECKGKVGIFPKVFVEDC [L40V] | -0.451 ± 0.12
LKKGSQVEALFSYEATQPLDLEFQEGDIILVLSKVNEEWLEGECKGKVGIFPKVFVEDC [E19L] | 0.006 ± 0.09
LKKGSQVEALFSYEATQPEDLEFQEGDIILILSKVNEEWLEGECKGKVGIFPKVFVEDC [V31I] | 0.342 ± 0.077
LKKGSQVEALFSYEFTQPEDLEFQEGDIILVLSKVNEEWLEGECKGKVGIFPKVFVEDC [A15F] | -0.606 ± 0.17
LKKGSQVEALNSYEATQPEDLEFQEGDIILVLSKVNEEWLEGECKGKVGIFPKVFVEDC [F11N] | 0.029 ± 0.28
LKEGSQVEALFSYEATQPEDLEFQEGDIILVLSKVNEEWLEGECKGKVGIFPKVFVEDC [K3E] | -0.067 ± 0.23
LKKGSQVEALFSYEATQPEDLEFQEGDIILVLSKVNEEWLEGECKGKVGIFGKVFVEDC [P52G] | -0.215 ± 0.11
LKKGSQVEALFSYEATQPEDLEFQEGDIILVLSKVNEEWLEGENKGKVGIFPKVFVEDC [C44N] | -0.924 ± 0.2
